The values that follow come from patent publication US20140296307, “POTENT ANALOGUES OF THE C-MYC INHIBITOR 10074-G5 WITH IMPROVED CELL PERMEABILITY” (University of Maryland, Baltimore, published 2014).

One series has as its target Max(L) homodimer (UniProt P61244 P61244:2-160). The series can be described thus: EMSA; 60 nM Max(L), 20 nM DNA; same buffer; 3jc48-3 compound IC50 60.6 uM. To be noted: tags: His6; chain copies: 2 (stated homodimer); label: 5'-hexachlorofluorescein. As for the experimental part:
(§1) EMSAs. These were performed essentially as described previously (23). Briefly, Ni⁺-agarose-purified His₆-tagged c-Myc bHLH-ZIP domain (residues 353-437) was used for all binding assays as was the His₆-tagged 151 residue isoform of Max, otherwise referred to as Max(S) (residues 2-151) (21). For each binding reaction, the proteins were allowed to heterodimerize at a concentration of 30 nM each in the presence of 20 nM of a 5′-HEX-tagged double-stranded 22-base pair oligonucleotide 5′-hexachlorofluoresceine-[…]-3′ (SEQ ID NO: 1) containing a consensus c-Myc binding site (CACGTG) and the indicated concentration of small molecule inhibitor. Control reactions contained the same oligonucleotide in the presence of 60 nM of the 160 residue isoform of Max referred to as Max(L) (21). All binding reactions were prepared in a buffer consisting of PBS (pH 7.3), 1 mmol/L EDTA, 0.1% NP40, 5% glycerol, 1 mmol/L DTT, and 0.4 mg/mL bovine serum albumin. Electrophoresis was performed on 8% polyacrylamide/bisacrylamide (80:1) gels in […] (23). Each reaction was run on at least three separate occasions.
A general note: In EMSA bound probe runs differently from free probe, usually more slowly.

The target of series [1] is c-Myc bHLH-ZIP/Max(S) heterodimer (UniProt P01106-1;P61244-2 P01106-1:353-437,P61244-2:2-151). The series can be described thus: EMSA; 30 nM each protein, 20 nM DNA; PBS pH 7.3, 1 mM EDTA, 0.1% NP40, 5% glycerol, 1 mM DTT, 0.4 mg/mL BSA; binding disrupted by 3jc48-3 (compound IC50 34.8 uM). To be noted: tags: His6 (Myc His6-TEV tag from pET151, removed by TEV in one protocol), label: 5'-hexachlorofluorescein. The protocol:
as §1

Chain of c-Myc bHLH-ZIP/Max(S) heterodimer (P01106 368-452, chain 1 of 2): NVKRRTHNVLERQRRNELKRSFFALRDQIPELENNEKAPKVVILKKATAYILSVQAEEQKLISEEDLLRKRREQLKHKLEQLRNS
Chain of c-Myc bHLH-ZIP/Max(S) heterodimer (P61244 other isoform, or with tags, fused parts or gaps, chain 2 of 2): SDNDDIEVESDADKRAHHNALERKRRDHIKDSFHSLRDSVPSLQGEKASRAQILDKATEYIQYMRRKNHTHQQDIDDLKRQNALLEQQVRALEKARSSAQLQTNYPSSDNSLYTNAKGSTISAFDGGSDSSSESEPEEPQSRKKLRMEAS
Chain of Max(L) homodimer (P61244 2-160, one chain of several): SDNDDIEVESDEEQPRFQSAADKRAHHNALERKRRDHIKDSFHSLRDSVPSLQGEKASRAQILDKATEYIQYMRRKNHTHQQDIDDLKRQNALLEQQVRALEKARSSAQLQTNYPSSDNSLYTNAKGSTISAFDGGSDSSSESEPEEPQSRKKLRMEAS

B1: E-box 22-bp HEX oligonucleotide (dsDNA)
DNA 1: CACCCGGTCACGTGGCCTACAC
DNA 2: GTGTAGGCCACGTGACCGGGTG
Regarding B1, the binding result (in the series with Max(L) homodimer; in series [1]) was “binds” throughout.
